Here are results for 2 molecules from publication PMC2648313, “Identification of Rhoptry Trafficking Determinants and Evidence for a Novel Sorting Mechanism in the Malaria Parasite Plasmodium falciparum” (PLoS Pathogens, 2009).

Common to all, as to assay: pull-down; 100 ug His6-tagged RAP1 recombinant protein immobilised on TALON resin, incubated O/N at 4 C with purified GST-fusion proteins in pull-down buffer (50 mM Na2HPO4, 75 mM NaCl, 0.1% Triton X-100, 5 mM imidazole, pH 7.4); eluted with imidazole; Coomassie gel and immunoblot with anti-GST
What all share (conditions): both partners purified
(A western blot detects proteins with antibodies after separation by electrophoresis.)

For assay [1], the target named is T1, RAP1(22-152) mutant, aspartate 39, 43 and 44 to alanine (P. falciparum 3D7, UniProt Q9U429 22-152, aspartate 39 to alanine | aspartate 43 to alanine | aspartate 44 to alanine).
T1 construct: not shown: His6, C-terminal, kept
T1 sequence: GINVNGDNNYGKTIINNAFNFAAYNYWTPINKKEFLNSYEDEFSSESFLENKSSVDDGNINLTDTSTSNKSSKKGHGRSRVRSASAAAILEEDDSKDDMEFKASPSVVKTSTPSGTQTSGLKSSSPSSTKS

Assay [2] addresses T2, RAP1(22-152) mutant, residues 40, 42 and 45 to glycine (P. falciparum 3D7, UniProt Q9U429 22-152, aromatic residue 40 to glycine | aromatic residue 42 to glycine | aromatic …).
T2 construct: not shown: His6, C-terminal, kept
T2 sequence: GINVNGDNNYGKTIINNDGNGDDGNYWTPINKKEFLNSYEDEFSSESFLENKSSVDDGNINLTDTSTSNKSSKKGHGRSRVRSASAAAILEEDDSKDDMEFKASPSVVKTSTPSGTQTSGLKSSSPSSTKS

Assay [3] concerns the target T3, RAP1(22-152), recombinant His6-tagged RAP1 protein representing amino acids 22-152 (P. falciparum 3D7, UniProt Q9U429 22-152).
T3 construct: contains the RAP1 rhoptry signal (22-55); Amplified from 3D7 genomic DNA, cloned NcoI/XhoI into pET28b upstream of the His6 tag; not shown: His6, C-terminal, kept
T3 sequence: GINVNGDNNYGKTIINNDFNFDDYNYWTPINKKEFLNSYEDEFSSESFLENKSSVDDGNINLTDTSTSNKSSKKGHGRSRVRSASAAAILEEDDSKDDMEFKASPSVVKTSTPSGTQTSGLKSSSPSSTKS

The target in assay [4] is T4, RAP1(22-152) mutant, aspartate 39, 43 and 44 to arginine (P. falciparum 3D7, UniProt Q9U429 22-152, aspartate 39 to arginine | aspartate 43 to arginine | aspartate 44 to arginine).
T4 construct: not shown: His6, C-terminal, kept
T4 sequence: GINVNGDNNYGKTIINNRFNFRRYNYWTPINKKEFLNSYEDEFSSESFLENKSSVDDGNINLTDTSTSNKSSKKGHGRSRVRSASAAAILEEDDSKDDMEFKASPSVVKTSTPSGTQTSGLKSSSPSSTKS

B1: RAMAE, RAMA-GST fusion protein representing amino acids 759-840 (domain or fragment)
chain: DNKFVAHKKREKSISPHSYQKVSTKVQNKENMENKEKKQLINDEAAMTAEELVELENTEDVNTPTMVETEEIDFDENGNKSS
notes: rhoptry associated membrane antigen (RAMA), P. falciparum, amino acids 759-840; source: E. coli BL21 (DE3), purified (glutathione resin)
In the case of B1, the binding result in assay [1], in assay [2], in assay [3] and in assay [4] was “binds” throughout.

B2: RAMAE1, RAMA-GST fusion protein representing amino acids 759-798 (domain or fragment)
chain: DNKFVAHKKREKSISPHSYQKVSTKVQNKENMENKEKKQL
notes: rhoptry associated membrane antigen (RAMA), P. falciparum, amino acids 759-798; Amplified from P. falciparum cDNA and cloned into pGEX-4T-1; source: E. coli BL21 (DE3), purified (glutathione resin)
B2: the binding result in assay [3] is reported as “binds”.
